Laboratory results reported in IntAct's records for PubMed 12839993.

B1: Cullin-1 (Arabidopsis thaliana (Mouse-ear cress)), Q94AH6 (parent)
chain: MERKTIDLEQGWDYMQTGITKLKRILEGLNEPAFDSEQYMMLYTTIYNMCTQKPPHDYSQQLYDKYREAFEEYINSTVLPALREKHDEFMLRELFKRWSNHKVMVRWLSRFFYYLDRYFIARRSLPPLNEVGLTCFRDLVYNELHSKVKQAVIALVDKEREGEQIDRALLKNVLDIYVEIGMGQMERYEEDFESFMLQDTSSYYSRKASSWIQEDSCPDYMLKSEECLKKERERVAHYLHSSSEPKLVEKVQHELLVVFASQLLEKEHSGCRALLRDDKVDDLSRMYRLYHKILRGLEPVANIFKQHVTAEGNALVQQAEDTATNQVANTASVQEQVLIRKVIELHDKYMVYVTECFQNHTLFHKALKEAFEIFCNKTVAGSSSAELLATFCDNILKKGGSEKLSDEAIEDTLEKVVKLLAYISDKDLFAEFYRKKLARRLLFDRSANDDHERSILTKLKQQCGGQFTSKMEGMVTDLTLARENQNSFEDYLGSNPAANPGIDLTVTVLTTGFWPSYKSFDINLPSEMIKCVEVFKGFYETKTKHRKLTWIYSLGTCHINGKFDQKAIELIVSTYQAAVLLLFNTTDKLSYTEILAQLNLSHEDLVRLLHSLSCAKYKILLKEPNTKTVSQNDAFEFNSKFTDRMRRIKIPLPPVDERKKVVEDVDKDRRYAIDAAIVRIMKSRKVLGHQQLVSECVEQLSRMFKPDIKAIKKRMEDLITRDYLERDKENPNMFRYLA

How the values were obtained:
[1] = variants of: B1; conditions: with skp1a_arath SKP1A
iaa7_arath IAA7, Q38825 = variants of: B1; conditions: with iaa7_arath IAA7, Q38825
iaa7_arath IAA7, Q38825, sequence (Q38825 whole entry): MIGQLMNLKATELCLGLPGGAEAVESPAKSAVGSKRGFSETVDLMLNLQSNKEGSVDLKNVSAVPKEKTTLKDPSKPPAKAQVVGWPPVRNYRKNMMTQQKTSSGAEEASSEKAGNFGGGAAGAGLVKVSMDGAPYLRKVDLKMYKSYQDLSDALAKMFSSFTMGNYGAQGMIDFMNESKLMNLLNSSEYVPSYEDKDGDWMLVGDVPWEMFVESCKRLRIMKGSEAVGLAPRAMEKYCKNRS

Row | Variant | effect of a mutation on the interaction [1] | effect of a mutation on the interaction (iaa7_arath IAA7, Q38825)
1 | F112I | decreasing interaction | decreasing interaction
2 | F112V | decreasing interaction | decreasing interaction
